# Measured values taken from patent US20230265151A1, “GIP/GLP1 CO-AGONIST COMPOUNDS” (priority 2020, published 2023).
# Substitutions are numbered along the chain they refer to.
# T1: human GIP receptor (human) (UniProt P48546)
# T1 sequence (looked up): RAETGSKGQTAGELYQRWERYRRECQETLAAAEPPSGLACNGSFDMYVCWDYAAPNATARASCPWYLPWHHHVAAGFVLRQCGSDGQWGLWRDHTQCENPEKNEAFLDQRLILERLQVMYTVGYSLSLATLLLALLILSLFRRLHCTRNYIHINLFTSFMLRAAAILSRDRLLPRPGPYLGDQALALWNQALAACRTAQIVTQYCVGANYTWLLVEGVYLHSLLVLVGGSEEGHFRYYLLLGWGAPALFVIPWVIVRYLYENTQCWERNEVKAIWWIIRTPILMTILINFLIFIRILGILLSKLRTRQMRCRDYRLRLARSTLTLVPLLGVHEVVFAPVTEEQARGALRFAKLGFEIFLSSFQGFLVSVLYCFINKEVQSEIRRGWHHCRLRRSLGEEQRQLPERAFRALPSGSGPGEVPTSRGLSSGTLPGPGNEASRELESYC
# T2: human GIP receptor (human, UniProt P48546 22-466)
# T2 sequence (looked up): T1 sequence (looked up)
# B1: Example 433 (peptide)
# peptide: YXEGTXTSDXXIXLDXKAQXKFIXXLIXGGPSSGAPPPS
# modifications: Y-Aib-EGT-αMeF(2F)-TSD-4Pal-Aib-I-αMeL-LD-Orn-K((2-[2-(2-Amino-ethoxy)-ethoxy]-acetyl)3-(γ-Glu)-CO-(CH2)10-CH3)AQ-Aib-K((2-[2-(2-Amino-ethoxy)-ethoxy]-acetyl)3-(γ-Glu)-CO-(CH2)10-CH3)FI-(D-Glu)-αMeY-LI-Orn-GGPSSGAPPPS-NH2
# B2: Example 427 (peptide)
# peptide: B1 peptide with K21E, X28K
# modifications: Y-Aib-EGT-αMeF(2F)-TSD-4Pal-Aib-I-αMeL-LD-Orn-K((2-[2-(2-Amino-ethoxy)-ethoxy]-acetyl)-(γ-Glu)-CO-(CH2)10-CH3)AQ-Aib-EFI-(D-Glu)-αMeY-LIK((2-[2-(2-Amino-ethoxy)-ethoxy]-acetyl)-(γ-Glu)-CO-(CH2)10-CH3)GGPSSGAPPPS-NH2
# B3: Example 361 (peptide)
# peptide: B1 peptide with K21E, X28K
# modifications: Y-Aib-EGT-αMeF(2F)-TSD-4Pal-Aib-I-αMeL-LD-Orn-K((2-[2-(2-Amino-ethoxy)-ethoxy]-acetyl)-(γ-Glu)-(10-(4-carboxyphenoxy)decanoyl))AQ-Aib-EFIe-αMeY-LIK((2-[2-(2-Amino-ethoxy)-ethoxy]-acetyl)-(γ-Glu)-(10-(4-carboxyphenoxy)decanoyl))GGPSSGAPPPS-NH2
# B4: Example 465 (peptide)
# peptide: B1 peptide with K21E, X28K
# modifications: Y-Aib-EGT-αMeF(2F)-TSD-4Pal-Aib-I-αMeL-LD-Orn-K((2-[2-(2-Amino-ethoxy)-ethoxy]-acetyl)-Aoc-CO-(CH2)12-CO2H)AQ-Aib-EFI-(D-Glu)-αMeY-LIK(((2-[2-(2-Amino-ethoxy)-ethoxy]-acetyl)-Aoc-CO-(CH2)12-CO2H)GGPSSGAPPPS-NH2)
# B5: Example 423 (peptide)
# peptide: B1 peptide with K21E, X28K
# modifications: Y-Aib-EGT-αMeF(2F)-TSD-4Pal-Aib-I-αMeL-LD-Orn-K((2-[2-(2-Amino-ethoxy)-ethoxy]-acetyl)3-(γ-Glu)-CO-(CH2)10-CH3)AQ-Aib-EFI-(D-Glu)-αMeY-LIK((2-[2-(2-Amino-ethoxy)-ethoxy]-acetyl)3-(γ-Glu)-CO-(CH2)10-CH3)GGPSSGAPPPS-NH2
# B6: Example 358 (peptide)
# peptide: B1 peptide with K21E, X28K
# modifications: Y-Aib-EGT-αMeF(2F)-TSD-4Pal-Aib-I-αMeL-LD-Orn-K((2-[2-(2-Amino-ethoxy)-ethoxy]-acetyl)2-(γ-Glu)-CO-(CH2)12-CO2H)AQ-Aib-EFI-(D-Glu)-αMeY-LIK((2-[2-(2-Amino-ethoxy)-ethoxy]-acetyl)2-(γ-Glu)-CO-(CH2)12-CO2H)GGPSSGAPPPS-NH2
# B7: Example 406 (peptide)
# peptide: B1 peptide
# modifications: Y-Aib-EGT-αMeF(2F)-TSD-4Pal-Aib-I-αMeL-LD-Orn-K((2-[2-(2-Amino-ethoxy)-ethoxy]-acetyl)2-(γ-Glu)-CO-(CH2)12-CO2H)AQ-Aib-K((2-[2-(2-Amino-ethoxy)-ethoxy]-acetyl)2-(γ-Glu)-CO-(CH2)12-CO2H)FI-(D-Glu)-αMeY-LI-Orn-GGPSSGAPPPS-NH2
# B8: Example 408 (peptide)
# peptide: B1 peptide
# modifications: Y-Aib-EGT-αMeF(2F)-TSD-4Pal-Aib-I-αMeL-LD-Orn-K((2-[2-(2-Amino-ethoxy)-ethoxy]-acetyl)2-(γ-Glu)-(10-(4-carboxyphenoxy)decanoyl))AQ-Aib-K((2-[2-(2-Amino-ethoxy)-ethoxy]-acetyl)2-(γ-Glu)-(10-(4-carboxyphenoxy)decanoyl))FI-(D-Glu)-αMeY-LI-Orn-GGPSSGAPPPS-NH2
# B9: Example 387 (peptide)
# peptide: B1 peptide with K21E, X28K
# modifications: Y-Aib-EGT-αMeF(2F)-TSD-4Pal-Aib-I-αMeL-LD-Orn-K((2-[2-(2-Amino-ethoxy)-ethoxy]-acetyl)2-CO-(CH2)12-CO2H)AQ-Aib-EFI-(D-Glu)-αMeY-LIK((2-[2-(2-Amino-ethoxy)-ethoxy]-acetyl)2-CO-(CH2)12-CO2H)GGPSSGAPPPS-NH2
# B10: Example 395 (peptide)
# peptide: B1 peptide with K21E, X28K
# modifications: Y-Aib-EGT-αMeF(2F)-TSD-4Pal-Aib-I-αMeL-LD-Orn-K((2-[2-(2-Amino-ethoxy)-ethoxy]-acetyl)2-(10-(4-carboxyphenoxy)decanoyl))AQ-Aib-EFI-(D-Glu)-αMeY-LIK((2-[2-(2-Amino-ethoxy)-ethoxy]-acetyl)2-(10-(4-carboxyphenoxy)decanoyl))GGPSSGAPPPS-NH2
# B11: Example 413 (peptide)
# peptide: B1 peptide
# modifications: Y-Aib-EGT-αMeF(2F)-TSD-4Pal-Aib-I-αMeL-LD-Orn-K((2-[2-(2-Amino-ethoxy)-ethoxy]-acetyl)2-(γ-Glu)-CO-(CH2)10-CH3)AQ-Aib-K((2-[2-(2-Amino-ethoxy)-ethoxy]-acetyl)2-(γ-Glu)-CO-(CH2)10-CH3)FI-(D-Glu)-αMeY-LI-Orn-GGPSSGAPPPS-NH2
# What was measured:
# Experiment in all cases: cell-based or functional assay
# [1] = target: human glucagon receptor (human) (UniProt P47871)
# [2] = target: T1, human GIP receptor (human)
# [3] = target: hGLP-1R (Homo sapiens, UniProt P43220)
# [4] = target: human GLP-1 receptor (human, UniProt P43220 24-463)
# [5] = target: T2, human GIP receptor
Binder,cAMP EC50 [1] [µM],cAMP EC50 [2] [nM],cAMP Emax [2] [%],cAMP EC50 [3] [nM],cAMP Emax [3] [%],cAMP EC50 (1.0% HSA) [4] [nM],cAMP EC50 (1.0% HSA) [5] [nM],cAMP Emax (1.0% HSA) [5] [%]
B1,> 9.95,0.00972,94,0.128,102,2.63,0.136,
B2,> 9.95,0.0132,95.9,0.206,109,25.1,2.04,92.4
B3,> 9.95,0.0121,107,0.58,98.2,43,1.44,88.8
B4,> 9.95,0.0174,94.9,0.413,98.6,73.2,3.63,94.4
B5,> 9.95,0.00658,104,0.0721,105,4.74,0.294,89.7
B6,> 10.1,0.0137,99.6,0.773,107,65.3,2.06,86.2
B7,> 9.95,0.00896,101,0.351,98.5,9.21,0.527,
B8,> 9.95,0.00888,99.7,0.227,102,5.92,0.299,
B9,> 9.95,0.0137,102,0.32,101,4.4,0.278,93
B10,> 9.95,0.0127,93.1,0.377,90.8,6.26,0.327,57.8
B11,> 9.95,0.0146,101,0.234,96.9,5.47,0.422,
